Measurements as given in publication doi:10.1101/2020.08.10.245522.

How the values were obtained:
[1] = target: CA hexamer-2 (HIV-1 | not stated); experiment: SEC-MALS
[2] = target: A14C/E45C disulfide crosslinked CA tubes (HIV-1); experiment: co-sedimentation
[3] = target: CA hexamer-2 (HIV-1 | not stated); experiment: ITC

NUP153^1401-1475, sequence (P49790 1401-1475): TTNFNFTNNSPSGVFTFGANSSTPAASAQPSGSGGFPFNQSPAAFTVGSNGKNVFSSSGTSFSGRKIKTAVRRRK

Row | Substance | percent bound to CA tubes [2] [%] | other results
1 | NUP153^1401-1475 (from UniProt P49790 1401-1475) (domain or fragment) | – | stoichiometry N (NUP153^1401-1475 per hexamer-2) [1]: 1
2 | NUP153^1411-1465 (from UniProt P49790 1411-1464) (domain or fragment) | 25 | –
3 | NUP153^1411-1475/1425-1464Δ peptide (25 aa) (from UniProt P49790 1411-1475) | – | Kd [3]: 0.8 µM
4 | NUP153^1465-1475 (from UniProt P49790 1465-1475) (domain or fragment) | 50 | –
